Assay results from publication PMC9671094.

Key:
[1] = molecular target: PG9.VHVL (human); experiment: SPR; IgG captured as ligand by anti-human IgG (Human Antibody Capture Kit) on a GLC chip, ProteOn XPR36; trimer as analyte; 1x HBS-EP+ pH 7.4 with 1 mg/ml BSA; 1:1 binding model; highest SOSIP concentration 5 uM or 10 uM
[2] = molecular target: PG9.iGL.1MUT (human); experiment: as above
[3] = molecular target: PG16.iGL (human); experiment: as above
[4] = molecular target: PG9 (human); experiment: as above
[5] = molecular target: PG16.VHVL (human); experiment: as above
[6] = molecular target: PG16 (human); experiment: as above
[7] = molecular target: PG9.HCDR3.1MUT (human); experiment: as above
[8] = molecular target: PCT64.iGL (human); experiment: as above
[9] = molecular target: PG16.HCDR3 + 1MUT (human); experiment: as above
[10] = molecular target: ApexGT2.2MUT trimer (HIV-1 isolate BG505); experiment: cryo-EM structure

Row | Substance | Kd [1] [nM] | Kd [2] [nM] | Kd [3] [nM] | Kd [4] [nM] | Kd [5] [nM] | Kd [6] [nM] | Kd [7] [nM] | Kd [8] [nM] | Kd [9] [nM] | stoichiometry N (Fab per trimer) [10]
1 | BG505 SOSIP.D664 (complex) | 72 | 645 | > 5000 | 15.8 | 1000 | 38 | 317 | > 5000 | 273 | –
2 | PCT64 LMCA Fab | – | – | – | – | – | – | – | – | – | 1
